The supplement of paper PMC9170038

System: MS2 coat protein
Test: apparent KD of MS2 coat protein; designed switch direction (-1 OFF switch, 1 ON switch): -1; higher = weaker reporter binding
In short: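 Apparent KD, taken as the median over clusters for each design, was obtained by curve-fitting normalised cluster fluorescence. Designed RNA switches had been transcribed on Illumina chips by stalled E. coli RNA polymerase and titrated with SNAP-549-labelled MS2 coat protein, doubling from 0.7 or 1.5 nM to 3 µM.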

[1] = input ligand: microRNA oligo, concentration not stated
[2] = Eterna round: R95, input ligand: microRNA oligo, concentration not stated
[3] = Eterna round: R95, input ligand: FMN 200 uM
[4] = Eterna round: R95, input ligand: none

| Sequence | apparent KD of MS2 coat protein (input ligand: FMN 200 uM) [nM] | apparent KD of MS2 coat protein [1] [nM] | apparent KD of MS2 coat protein (input ligand: none) [nM] | apparent KD of MS2 coat protein [2] [nM] | apparent KD of MS2 coat protein [3] [nM] | apparent KD of MS2 coat protein [4] [nM] |
| --- | --- | --- | --- | --- | --- | --- |
| CUCCGGCGUGUAGGAUAUGGUUCCGUUUCGGUUCCAGAAGGACAUGAGGAUCACCCAUGUACCUGUCGUCGGUCGUCACCGGGC [salish99_ExNG1_r04_216] (Eterna round: R96, puzzle: Exclusion NG 1) | 12.4 | 13.2 | 16.4 |  |  |  |
| CUCGUGCAGCAAAGCUGUACGAGUACAUGAGGAUCACCCAUGUAGGAUAUGGUACGCUUUGCGUGCUAGAAGGAUAUGUGUAGG [Mat - Exclusion NG 3 - Mod of JL - D86] (Eterna round: R96, puzzle: Exclusion NG 3) | 37.5 | 24.1 | 36.1 |  |  |  |
| CUCGUGCAGCUUUGCUGUACGAGUACAUGAGGAUCACCCAUGUAGGAUAUGGUACGCUUUGCGUGCCAGAAGGACGUGUGUUUG [JL EXNG3 1.40] (Eterna round: R96, puzzle: Exclusion NG 3) | 221 | 27.6 | 39.4 |  |  |  |
| CUCGUGUAAGGAUAUACGAGUCACGGAAAUAAAACGUGAAGGUAGAAGGUACAUGAGGAUCACCCAUGUAAAAC [Mod of Anonveat 2 - Jieux - Exclusion 4] (Eterna round: R97, puzzle: Exclusion 4) | 209 |  | 29.8 |  |  |  |
| CUCUUGGCAGGAUAUGCUCUUUUAGACAUGAGGAUCACCCAUGUGCUCAUUCCUUCUUUUGCAGAAGGGCCUUAAC [JR_E5_Sub048] (puzzle: Exclusion 5) |  |  |  | 63.8 |  |  |
| CUCUUGUGAGGAUAUCAGGUGUGCUAGCGUACUGGUACAUCUGAGAAGGCACAUGAGGAUCACCCAUGUUUCUU [JL-ex4-3.21 Brourd mod] (puzzle: Exclusion 4) |  |  |  | 78.1 |  |  |
| CUCUUGUUAGGAUAUCAAACCGGCAGCGGAGCCGCCGGAAGUGAGAAGGGACAUGAGGAUCACCCAUGUAAGAA [Quatdior] (puzzle: Exclusion 4) |  |  |  | 58.9 |  |  |
| CUGAACCCGGUAGGAUAUAUUGUGGGCAAACAUGGAACAACAUGAGGAUCACCCAUGUAAUUUAGGUAGAAGGGCCAAAAGAUU [Excl-NG2-LRO07] (Eterna round: R96, puzzle: Exclusion NG 2) | 77.9 | 50.4 | 74.2 |  |  |  |
| CUGAGAAUAGGAUAUACUAACAAUGGAGUAGCUUCACGUCAACAUGAGGAUCACCCAUGUAGAAGGGUUAGCGG [Eternabot (L1) Solution 33] (Eterna round: R97, puzzle: Exclusion 2) | 25 |  | 30 |  |  |  |
| CUGAGCAGACGGAGAUCCAACAUGAGGAUCACCCAUGUCUCAAAAGCUUAUUGCUCGUCUUAUCCUCCUCUGUUCAC [Mat - Sensor, turn-off var - Eli Mod - D54] (Eterna round: R97, puzzle: Sensor, turn-off variant 1) | 26.9 |  | 26.7 |  |  |  |
| CUGAGCAGACGGAGAUCCAACAUGAGGAUCACCCAUGUCUCAAAAGCUUUUUGCUCGCCUUAUCCUCCUCUGUUCUC [Ererququce] (puzzle: Sensor v3, turn-off variant 1) |  |  |  | 208 | 34.8 | 36.6 |
| CUGAGCAGACGGAGAUCCAACAUGAGGAUCACCCAUGUCUCAAAAGCUUUUUGCUUGUCUUACCCUCCUCUGUUCUC [Isceeren] (puzzle: Sensor v3, turn-off variant 1) |  |  |  | 122 | 18.1 | 15.7 |
| CUGAGCAGACGGAGAUCCAACAUGAGGAUCACCCAUGUCUCAUAAGCUUUUUGCUCAUCUUAUUGUACCUUGGUGCU [JL ViennaUCT Edcesobi mod 3] (puzzle: Sensor v3, turn-off variant 1) |  |  |  | 14.4 | 275 | 323 |
| CUGAGUAGAGGAUAUACAUGAGGAUCACCCAUGUAAAGUAGCUUGCGUACAGGCAGAUGUAGAAGGUUAUUCGG [Mod of JL 13 - Jieux - Exclusion 3] (Eterna round: R97, puzzle: Exclusion 3) | 53.1 |  | 50.9 |  |  |  |
| CUGAUGUCAGGAUAUCAGAAAAGGCGCAAGGACACGCCAAAUGAGAAGGGACAUGAGGAUCACCCAUGUAAAAC [Orata] (puzzle: Exclusion 4) |  |  |  | 20.8 | 107 | 18.1 |
| CUGAUGUUAGGAUAUCAGGCGCCCGCCACUGGCAAAGCGCAUGAGAAGGGACAUGAGGAUCACCCAUGUAGUAA [Ussoisrebe] (puzzle: Exclusion 4) |  |  |  | 27.7 |  |  |
| CUGCUCCGUGUAGGAUAUGCAUACAACCAAUAUGCAGAAGGACAUGAGGAUCACCCAUGUAUGUUAUUAUCACGUGAAGCGUCC [Design 20] (Eterna round: R96, puzzle: Exclusion NG 1) |  | 16.8 |  |  |  |  |

| Sequence | apparent KD of MS2 coat protein (input ligand: FMN 200 uM) [nM] | apparent KD of MS2 coat protein [1] [nM] | apparent KD of MS2 coat protein (input ligand: none) [nM] | apparent KD of MS2 coat protein [2] [nM] | apparent KD of MS2 coat protein [3] [nM] | apparent KD of MS2 coat protein [4] [nM] |
| --- | --- | --- | --- | --- | --- | --- |
| CUGCUCCGUGUAGGAUAUGCAUACUCCCAUUAUGCAGAAGGACAUGAGGAUCACCCAUGUAUGUUAUUAUCAUGUGUUGCGUAC [Design 13] (Eterna round: R96, puzzle: Exclusion NG 1) | 250 | 29.5 | 38.5 |  |  |  |
| CUGCUCCGUGUAGGAUAUGCGCGCAACCAACGCGCAGAAGGACAUGAGGAUCACCCAUGUAUGUUAUUAUCACGUGAAGCGCAA [Design 31] (Eterna round: R96, puzzle: Exclusion NG 1) | 16 | 12.3 | 13.2 |  |  |  |
| CUGGACAGAGGAUAUUGUGCUGCUGACAUGAGGAUCACCCAUGUAUGUUAACUCGGCCGUCGAGAAGGCUGACAGG [BotMod 17 - Jieux - Exclusion 5] (Eterna round: R97, puzzle: Exclusion 5) | 14.3 |  | 19.2 |  |  |  |
| CUGGGUCGUGUUAGGAUAUGCUCUAGAAAGUUAGGGUAGAAGGAACAUGAGGAUCACCCAUGUGACUUCACUAG [BmEX4 B.27] (Eterna round: R97, puzzle: Brourd's mod of Exclusion 4) | 23.6 |  | 15.4 |  |  |  |
| CUGGUCCGAGGAUAUAUUAAGUGAUACAUGAGGAUCACCCAUGUAAUUUGAUGGAAAUAAAUAGAAGGCGGACUAG [Mat - Exclusion 5 - JL mod - D44] (puzzle: Exclusion 5) |  |  |  | 45.9 | 34.2 | 53.4 |
| CUGGUCCGAGGAUAUAUUAUGUGAUACAUGAGGAUCACCCAUGUUAUAUGAUGGAUGUUAGUAGAAGGCGGACUAG [JL-ex5-3.21] (puzzle: Exclusion 5) |  |  |  | 57.3 | 102 | 59.9 |
| CUGGUGUGAGGAUAUCAGGGCGCGCCCAAGGGCACGCCAAAUGAGAAGGCACAUGAGGAUCACCCAUGUGGGAC [Erzala] (puzzle: Exclusion 4) |  |  |  | 31.4 | 45.6 | 35.3 |
| CUGUACUAAGGAUAUACAUGAGGAUCACCCAUGUCGAUGGUAGGCUGACCGUGACUCCGUAGAAGGUAGAUUCC [Eternabot (L1) Solution 77] (Eterna round: R97, puzzle: Exclusion 3) | 100 |  | 81.5 |  |  |  |
| CUGUACUGAGGAUAUACAUGAGGAUCACCCAUGUUCUUCAGCUAGGAAACUAGCAAAGGUAGAAGGCAGUACAG [Mat - Exclusion 3 - Eli Mod - D69] (Eterna round: R97, puzzle: Exclusion 3) | 784 |  | 34.3 |  |  |  |
| CUGUGCACGCUGCGGUCCUACAUGAGGAUCACCCAUGUGGUCUGGUGGCGUGGGUCACCGGACUUGGCUCGUCUUGA [salish99_S_TOV1_R5_065] (Eterna round: R97, puzzle: Sensor, turn-off variant 1) | 44.8 |  | 49.3 |  |  |  |
| CUGUUCCAUGUAGGAUAUGCAUAUUCUCAUUAUGCAGAAGGACAUGAGGAUCACCCAUGUAUGUUAUUAUUAUAUGUUACAUGU [Design 3] (Eterna round: R96, puzzle: Exclusion NG 1) | 633 | 47.7 | 64.9 |  |  |  |
| CUUAGCCUAAAAUCACGCAAGCUCUUUGCUUGUCUUAAGACAUGAGGAUCACCCAUGUCCGGGCUGAACUUAUGGAA [Qugegele] (puzzle: Sensor v3, turn-off variant 2) |  |  |  | 24.9 | 19.9 | 21 |
| CUUAGCCUAAAAUCACGCAAGCUUUCUGCUUGUCUUAAGACAUGAGGAUCACCCAUGUCCGGGCUGAACUUAUGGAA [Inve] (puzzle: Sensor v3, turn-off variant 2) |  |  |  | 22.5 | 18.8 |  |
| CUUAGCCUAAAAUCACGCAAGCUUUUCGCUUGUCUUAAGACAUGAGGAUCACCCAUGUCCGGGCUGAACUUAUGGAA [Esenma] (puzzle: Sensor v3, turn-off variant 2) |  |  |  | 19.2 | 18.3 | 18.5 |
| CUUAUGUAAGGAUAUGCCUGGCCGUGAGGCCAAAUUGAAUAGCAGAAGGUACAUGAGGAUCACCCAUGUACGGG [jl-ex4-4.63 ViennaUCT mod] (Eterna round: R97, puzzle: Exclusion 4) | 325 |  | 364 |  |  |  |
| CUUAUGUCAGGAUAUUAGUAGUAAAUGAAUAAAAUUAUUACUGAGAAGGGACAUGAGGAUCACCCAUGUUCCUC [Mat - Exclusion 4 - Eli Mod - D4] (Eterna round: R97, puzzle: Exclusion 4) | 149 |  | 19.6 |  |  |  |
| CUUAUGUGAGGAUAUGCCUGGCCGUGAGGCCAAAUUGAAUUGCAGAAGGCACAUGAGGAUCACCCAUGUGCGGG [jl-ex4-4.66 ViennaUCT mod] (Eterna round: R97, puzzle: Exclusion 4) | 201 |  | 50.2 |  |  |  |
